B1: symplectin: photoprotein derived from okinawan squid (Symplectoteuthis oualaniensis), 501 amino acids, SEQ ID NO:1 (protein, listed as Symplectoteuthis oualaniensis)
chain: YVRPVSSWKVAVFEHQVIPPKTDMETREEALDALKLNSDVYHEAVLESRSKGVKMIVFPEYGLYDINTLTRTRMDLMAEKVPHPKHGHRNPCDEPEYQTQSSEMLRTFSCMAKENDMYMVVNMAGREPCRRATEPECPGDKQLLYNTNVAFNNEGDVVARYYKTHLFWEEGWFNSSKNYEMALWDTPIGKFGTFMCFDFQAVQLIEQYNVRHIAYPASWVNLPPIYQSIQSHSAFARFAKINLLAASVHRLETSTYGSGIYSPNGAEIFYFRPDIPKSKLLVAEILPIHVKKPEQTVVNKDNPVFPSEDDDVQDLFDRGDFAFLKYKRMTTRAGTVEVCQKSFCCKARYAVKDRFKEVYAVGVYDGLLSAGANNLYFQICTVIQCPHKKCGLKISKVRTHFKYLNLRADGWLDRYVFPSYTVMYNNYIALDPFVWNYTVAGGIETKPGTSTPLHSANLVARIYAKDSSKHVHQPHPIDEGVIKMAVKYMLYVMAAYVYAAS
B2: 40 kDa protein: 40 kDa trypsin fragment of symplectin, C-terminal portion, SEQ ID NO:2 (protein, listed as Symplectoteuthis oualaniensis)
chain: ATEPECPGDKQLLYNTNVAFNNEGDVVARYYKTHLFWEEGWFNSSKNYEMALWDTPIGKFGTFMCFDFQAVQLIEQYNVRHIAYPASWVNLPPIYQSIQSHSAFARFAKINLLAASVHRLETSTYGSGIYSPNGAEIFYFRPDIPKSKLLVAEILPIHVKKPEQTVVNFDNPVFPSEDDDVQDLFDRGDFAFLKYKRMTTRAGTVEVCQKSFCCKARYAVKDRFKEVYAVGVYDGLLSAGANNLYFQICTVIQCPHKKCGLKISKVRTHFKYLNLRADGWLDRYVFPSYTVMYNNYIALDPFVWNYTVAGGIETKPGTSTPLHSANLVARIYAKDSSKHVHQPHPIDEGVIKMAVKYMLYVMAAYVYAAS
B3: recombinant symplectin protein: recombinant symplectin expressed in E. coli from pET-60 as a fusion protein with thioredoxin (protein)
chain: FEHQVIPPKTDMETREEALDALKLNSDVYHEAVLESRSKGVKMIVFPEYGLYDINTLTRTRMDLMAEKVPHPKHGHRNPCDEPEYQTQSSEMLRTFSCMAKENDMYMVVNMAGREPCRRATEPECPGDKQLLYNTNVAFNNEGDVVARYYKTHLFWEEGWFNSSKNYEMALWDTPIGKFGTFMCFDFQAVQLIEQYNVRHIAYPASWVNLPPIYQSIQSHSAFARFAKINLLAASVHRLETSTYGSGIYSPNGAEIFYFRPDIPKSKLLVAEILPIHVKKPEQTVVNKDNPVFPSEDDDVQDLFDRGDFAFLKYKRMTTRAGTVEVCQKSFCCKARYAVKDRFKEVYAVGVYDGLLSAGANNLYFQICTVIQCPHKKCGLKISKVRTHFKYLNLRADGWLDRYVFPSYTVMYNNYIALDPFVWNYTVAGGIETKPGTSTPLHSANLVARIYAKDSSKHVHQPHPIDEGVIKMAVKYMLYVMAAYVYAAS
modifications: left off: large carriers; things letters cannot carry
notes: recombinant symplectin expressed in E. coli from pET-60 as a fusion protein with thioredoxin

Columns and labels:
[1] = enzymatic characteristics and cation trigger of luminescence; type: biochemical, Symplectoteuthis oualaniensis; details: different from aequorin
Text: The photoprotein of okinawan squid has a low solubility and there is no conventional method for research of the protein. When a surfactant to solubilize the membrane protein is used, luminescent activity of the okinawan squid photoprotein would be disrupted. By addition of KCl (a caotropic salt) to a buffer, the protein can be solubilized without disrupting its activity. The effects of various kinds of salts on the objective protein are examined in the terms of extraction efficiency and luminescent activity. […] Enzymatic characteristic of okinawan squid was investigated. […] (Isobe M. et al., Pure and Appl. Chem., (1998) Vol.70, 2085-2092).

[2] = type: physicochemical, Symplectoteuthis oualaniensis
Text: The photoprotein of okinawan squid has a low solubility and there is no conventional method for research of the protein. When a surfactant to solubilize the membrane protein is used, luminescent activity of the okinawan squid photoprotein would be disrupted. By addition of KCl (a caotropic salt) to a buffer, the protein can be solubilized without disrupting its activity. The effects of various kinds of salts on the objective protein are examined in the terms of extraction efficiency and luminescent activity. […] Enzymatic characteristic of okinawan squid was investigated. […] (Isobe M. et al., Pure and Appl. Chem., (1998) Vol.70, 2085-2092). From photogenic organ of okinawan squid, collected at the sea area of Okinawa Prefecture Japan, the photoprotein having a molecular mass of 60 kDa was separated and purified as a luminescent ability as an index. This photoprotein was soluble in a solution containing KCl at a concentration of more than 0.6M. At first, homogenate of the photogenic organ containing symplectin was washed by KCl solution (pH 6.0) of 0.4M. Then, it was extracted with a KCl solution of 0.6M, and a portion thereof was added to a buffer having pH of 8.0 to confirm the luminescent ability. Because of high salt concentration, means of chromatography applicable for purification of the extract was limited.

[3] = luminescent ability of purified photoprotein and its trypsin fragments; type: biochemical, Symplectoteuthis oualaniensis; details: purified protein before and after trypsin digestion
Text: From photogenic organ of okinawan squid, collected at the sea area of Okinawa Prefecture Japan, the photoprotein having a molecular mass of 60 kDa was separated and purified as a luminescent ability as an index. This photoprotein was soluble in a solution containing KCl at a concentration of more than 0.6M. At first, homogenate of the photogenic organ containing symplectin was washed by KCl solution (pH 6.0) of 0.4M. Then, it was extracted with a KCl solution of 0.6M, and a portion thereof was added to a buffer having pH of 8.0 to confirm the luminescent ability. Because of high salt concentration, means of chromatography applicable for purification of the extract was limited. When the purified protein was hydrolyzed by trypsin, two products having molecular masses of 40 kDa and 15 kDa were produced from the original protein of 60 kDa (FIG. 2). […] Fragments of 40 kDa and 15 kDa were recognized after trypsin digestion, particularly in lane 3 corresponding to the purified protein. […] However, the amino acid sequence of the 15 kDa protein was the same as the N-terminal amino acid sequence of the 60 kDa protein. […] Incidentally, the active region responsible for the photogenic function would exist at the C-terminal portion corresponding to the 40 kDa protein.

[4] = bioluminescence assay of recombinant symplectin protein with dehydrocoeleneterazine; type: biochemical, Symplectoteuthis oualaniensis; details: complex with dehydrocoeleneterazine, 37° C. for 30 min, alkaline buffer (pH9.8) added
Protocol: The PCR products were separated on an agarose gel succeeded by digestion with EcoRI and SalI. Then it was ligated to EcoRI and SalI site of pET-32a(+) to construct a vector. The vector was designated pET-60 and it was utilized for expression of symplectin protein. The E. coli strain BL21(DE3)pLysS, transformed by pET-60, was grown in Luria broth (LB) at 37° C. Expression of the protein was induced by addition of isopropyl-1-thio-b-D-galactopyranoside (IPTG). The cells were harvested by centrifugation and lysed by sonication in a buffer. The homogenate was centrifuged, and the supernatant was subjected to affinity chromatography using His-Bind Resin. The fusion protein with thioredoxin was purified by a step-wise manner elution with varied imidazole concentrations. The recombinant symplectin protein was obtained as a fusion protein with thioredoxin, according to the manipulation described above. The recombinant symplectin protein was subjected to bioluminescence assay. The recombinant symplectin protein was suspended in a buffer, mixed with chromophore dehydrocoeleneterazine, then protein-chromophore complex was formed by incubation at 37° C. for 30 min. The alkaline buffer (pH9.8) was added to increase pH of the protein-chromophore complex solution and the bioluminescence reaction was initiated. […]

Row | Molecule | triggering of luminescence by a divalent cation [1] | KCl concentration of solution in which the photoprotein is soluble [2] | solubility into an aqueous solution [2] | ability to emit luminescence [3] | ability to emit luminescence ([3]; listed as 40 kDa fragment) | luminescence monitored by lumiphotometer [4]
1 | B1 | not triggered by a divalent cation | more than 0.6 M | low | exhibited luminescence | – | –
2 | B2 | – | – | – | exhibited luminescence | exhibited photogenic activity | –
3 | B3 | – | – | – | – | – | obvious luminescence was detected

— US7268215B2, “Photoprotein derived from okinawan squid and gene encoding the photoprotein” (Nagoya University, priority 2000, dated 2007)
